Test [1] addresses T1, full-length mouse DR6 on transfected cells (mouse, UniProt Q9EPU5 42-655).
T1 sequence: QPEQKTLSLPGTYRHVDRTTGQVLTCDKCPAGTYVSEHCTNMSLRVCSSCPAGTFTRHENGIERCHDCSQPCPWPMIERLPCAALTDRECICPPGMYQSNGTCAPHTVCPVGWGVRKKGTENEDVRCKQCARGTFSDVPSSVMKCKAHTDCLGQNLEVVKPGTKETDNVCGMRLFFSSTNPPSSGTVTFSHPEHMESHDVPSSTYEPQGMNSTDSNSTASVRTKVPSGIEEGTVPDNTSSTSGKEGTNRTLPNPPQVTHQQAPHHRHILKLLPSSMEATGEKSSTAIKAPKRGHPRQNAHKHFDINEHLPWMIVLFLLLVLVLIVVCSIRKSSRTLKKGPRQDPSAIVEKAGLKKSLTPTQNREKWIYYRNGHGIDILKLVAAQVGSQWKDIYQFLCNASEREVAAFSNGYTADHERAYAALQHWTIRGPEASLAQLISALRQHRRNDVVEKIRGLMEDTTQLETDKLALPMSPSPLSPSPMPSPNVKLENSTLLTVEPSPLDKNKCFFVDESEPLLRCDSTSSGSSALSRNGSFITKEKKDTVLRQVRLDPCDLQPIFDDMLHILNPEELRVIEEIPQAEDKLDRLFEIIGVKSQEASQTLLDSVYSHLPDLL
Nature of the test: FACS on 293T cells transfected with mouse DR6 (FIG. 13C). How it is done:
(§1) Six million HEK293 cells were transfected with 10 ug of plasmid DNA, which encoded full length human, rat, or mouse DR6. Three days after transfection, approximately 50,000 cells in 200 μL of PBS, 1% BSA, 0.1% NaN3 (FACS buffer) were analyzed. Cells were pelleted and resuspended in 150 μl of serial dilutions of anti-DR6 antibodies in FACS buffer. Samples were incubated for 1 hour on ice with occasional agitation and then washed three times. Bound DR6 antibody was visualized with PE-labeled goat F(ab)₂ anti-human Fab (for Dyax Fabs) or anti-mouse IgG specific antibody (for monoclonal antibodies) (Jackson Labs).

In test [2] the target is T2, full-length rat DR6 on transfected cells (rat, UniProt D3ZF92 42-655).
T2 construct: whole, on cells
T2 sequence (looked up): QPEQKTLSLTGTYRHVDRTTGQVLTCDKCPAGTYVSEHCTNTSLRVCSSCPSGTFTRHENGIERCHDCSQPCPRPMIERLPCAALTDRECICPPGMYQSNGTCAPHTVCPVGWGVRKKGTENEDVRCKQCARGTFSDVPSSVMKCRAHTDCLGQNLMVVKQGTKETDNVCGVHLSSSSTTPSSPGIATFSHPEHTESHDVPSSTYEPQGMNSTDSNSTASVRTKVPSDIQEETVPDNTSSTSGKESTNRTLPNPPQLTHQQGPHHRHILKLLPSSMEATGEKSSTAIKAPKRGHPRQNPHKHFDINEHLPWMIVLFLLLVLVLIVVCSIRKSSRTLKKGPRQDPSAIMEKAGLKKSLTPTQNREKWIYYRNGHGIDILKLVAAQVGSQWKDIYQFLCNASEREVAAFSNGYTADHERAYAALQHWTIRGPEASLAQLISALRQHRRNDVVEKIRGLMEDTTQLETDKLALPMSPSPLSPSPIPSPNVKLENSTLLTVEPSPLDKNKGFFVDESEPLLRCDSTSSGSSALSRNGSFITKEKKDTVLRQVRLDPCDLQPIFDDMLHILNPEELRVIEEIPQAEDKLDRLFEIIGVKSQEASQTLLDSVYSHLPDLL
Description: FACS on 293T cells transfected with rat DR6 (FIG. 13A). As to the method:
as §1

Test [3] deals with T3, full-length human DR6 on transfected cells (human, UniProt O75509 42-655).
T3 construct: also called Death Receptor-6; TNFRSF21
T3 sequence: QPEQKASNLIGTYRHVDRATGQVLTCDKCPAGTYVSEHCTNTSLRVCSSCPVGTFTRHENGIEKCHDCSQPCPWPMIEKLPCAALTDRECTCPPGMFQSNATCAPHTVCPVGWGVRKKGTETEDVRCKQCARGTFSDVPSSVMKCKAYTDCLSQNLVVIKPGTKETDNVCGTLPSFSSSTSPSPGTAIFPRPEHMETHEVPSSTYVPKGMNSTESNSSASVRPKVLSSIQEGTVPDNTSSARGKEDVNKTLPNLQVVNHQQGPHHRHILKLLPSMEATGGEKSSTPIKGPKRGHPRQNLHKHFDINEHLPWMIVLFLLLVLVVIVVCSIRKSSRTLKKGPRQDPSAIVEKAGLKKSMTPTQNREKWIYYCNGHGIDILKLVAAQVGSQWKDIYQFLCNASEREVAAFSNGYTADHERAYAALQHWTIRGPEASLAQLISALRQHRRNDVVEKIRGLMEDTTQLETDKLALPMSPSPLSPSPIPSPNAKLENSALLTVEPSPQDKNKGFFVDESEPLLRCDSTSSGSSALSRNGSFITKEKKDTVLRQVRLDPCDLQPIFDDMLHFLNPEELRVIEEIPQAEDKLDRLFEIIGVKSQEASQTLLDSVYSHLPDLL
Description: FACS on 293T cells transfected with human DR6 (FIG. 13B). As to the method: as §1

The target of test [4] is T3, full-length human DR6 on transfected …. Nature of the test: FACS on 293E cells transfected with full-length human DR6.
Test [5] deals with T1, full-length mouse DR6 on transfected …. Description: FACS on HEK293 cells transfected with full length mouse DR6, serial dilutions of antibody. As to the method: as §1
For test [6], the target named is T2, full-length rat DR6 on transfected cells. Description: FACS on HEK293 cells transfected with full length rat DR6, serial dilutions of antibody. How it is done:
as §1

For test [7], the target named is T3, full-length human DR6 on transfected …. Nature of the test: FACS on HEK293 cells transfected with full length human DR6, serial dilutions of antibody. As to the method:
as §1

Residue numbers refer to the chain shown, from its start.

B1: 1P2F2.1 (antibody, V domains shown)
VH: QVQLQQSGPEVARPGASVKLSCKASGYTFTDYYLNWVKQRTGQGLEWIGEIYPGNNHTYYNEKFKGKATLTADNSSSTAYLQFSSLTSEDSAVYFCTRGVIKWGQGTLVTVSV
VL: DILMTQSPSSMSVSLGDTVSITCHASQGIRNSIGWLQQKPGKSFKGLIYHATTLEDGVPSRFTGSGSGADFSLTISSLESEDFADYYCVQYAQFPYTFGGGTKLEIK
notes: Murine hybridoma monoclonal antibody; subgroup II(A) heavy chain, subgroup V kappa light chain
In the case of B1, the binding result in test [1], in test [2] and in test [3] was “binds” each time.

B2: M53-F04 (Fab, V domains shown)
VH: EVQLLESGGGLVQPGGSLRLSCAASGFTFSEYTMHWVRQAPGKGLEWVSVISSSGGRTVYADSVKGRFTISRDNSKNTLYLQMNSLRAEDTAVYYCARDLSNYMDYWGQGTLVTVSS
VL: DIQMTQSPATLSLSPGERATLSCRASQTVSNYLAWYQQKPGQAPRLLIYDASNRATGIPARFSGSGSGTDFTLTISSLEPEDFAVYYCQQRSKWLSFGGGTKVEIK
notes: Human Fab from a phage display library
For B2, the binding result in test [4] is listed as “binds”.

B3: M62-B02 (Fab, V domains shown)
VH: EVQLLESGGGLVQPGGSLRLSCAASGFTFSMYIMNWVRQAPGKGLEWVSSIVSSGGWTFYADSVKGRFTISRDNSKNTLYLQMNSLRAEDTAVYYCARGHYGMDVWGQGTTVTVSS
VL: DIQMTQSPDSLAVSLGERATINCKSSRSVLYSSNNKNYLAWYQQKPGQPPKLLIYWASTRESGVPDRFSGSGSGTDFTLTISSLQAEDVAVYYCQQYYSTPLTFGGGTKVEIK
notes: as for B2
Regarding B3, the binding result in test [4] is listed as “binds”.

B4: M72-F03 (Fab, V domains shown)
VH: B3 VH with M31Q, I33M, N35S, S50V, V52Y, S53P, W57S, F59H
VL: DIQMTQSPDSLAVSLGERATINCKSSQSVLYSSNNKNYLAWYQHKAGQPPKLLIHWASSRASGVPDRFSGSGSGTDFTLTISSLQAEDVAVYYCQQFYSLPLTFGGGTKVEIR
notes: as for B2
For the molecule B4, the binding result in test [4] is “binds”.

B5: M53-E04 (Fab, V domains shown)
VH: EVQLLESGGGLVQPGGSLRLSCAASGFTFSNYEMSWVRQAPGKGLEWVSSIYSSGGETLYADSVKGRFTISRDNSKNTLYLQMNSLRAEDTAVYYCARDGAADYWGQGTLVTVSS
VL: QSELTQPPSASGTPGQWVTISCSGSTSNIGNNYVYWYQQLPGTAPKLLIYTNNQRPSGVPDRFSGSKSGTSASLAISGLRSEDEADYYCATWDDSLYAPVFGGGTKVTVL
notes: as for B2
As for B5, in test [4], the binding result was “binds”.

B6: 1P5D10.2 (antibody, V domains shown)
VH: EVQLVESGGGLVKPGGSLKLSCAASGFTFSDYYMYWVRQTPEKRLEWVATISDGGLYTYYQDSVKGRFTISRDNAKNNLYLQMSSLKSEDTAMYYCAREDDYDGDFYTMDYWGQGTSVTVSS
VL: QIVLTQSPAIMSASPGEKVTITCSASSSVSYMHWFQQKPGTSPKLWIYSTSNLASGVPARFSGSGSGTSYSLTISRMEAEDAATYYCQQRSSYPLTFGAGTKLELK
notes: Murine hybridoma monoclonal antibody; subgroup III(D) heavy chain, subgroup VI kappa light chain
For B6, the binding result in test [5], in test [6] and in test [7] was “binds” in each case.

B7: M50-H01 (Fab, V domains shown)
VH: EVQLLESGGGLVQPGGSLRLSCAASGFTFSDYPMMWVRQAPGKGLEWVSRISPSGGHTIYADSVKGRFTISRDNSKNTLYLQMNSLRAEDTAVYYCAKDWHGGGAFDIWGQGTMVTVSS
VL: DIQMTQSPSSVSASVGDRVTITCRASQGIRSWLAWYQQKPGKAPKLLIYDASTLQSGVPSRFRGGGSGTDFTLTISSLQPEDFATYYCQQSYSTPLTFGGGTKVEIK
notes: as for B2
Turning to B7, the binding result in test [4] is recorded as “binds”.

B8: M66-B03 (Fab, V domains shown)
VH: EVQLLESGGGLVQPGGSLRLSCAASGFTFSPYWMSWVRQAPGKGLEWVSVIYPSGGHTYYADSVKGRFTISRDNSKNTLYLQMNSLRAEDTAVYYCARPGFGAAFDYWGPGTLVTVSS
VL: B7 VL with R30S, D50A, T53S, R63S, G65S, S91A, Y92N, T94F
In the case of B8, the binding result in test [4] is “binds”.

B9: M51-H09 (Fab, V domains shown)
VH: EVQLLESGGGLVQPGGSLRLSCAASGFTFSPYSMTWVRQAPGKGLEWVSSIVPSGGKTWYADSVKGRFTISRDNSKNTLYLQMNSLRAEDTAVYYCARTNLSYFDYWGQGTLVTVSS
VL: QSELTQPPSASGSPGQSVTISCTGTSNDVGSYNYISWFQQHPGKAPKLMIYEVNKRPSGVPDRFSGSKSDNTASLTVSGLQAEDEADYYCTSYAGSHKWVFGGGTKLTVL
notes: as for B2
In the case of B9, the binding result in test [4] was “binds”.

B10: M67-G02 (Fab, V domains shown)
VH: EVQLLESGGGLVQPGGSLRLSCAASGFTFSRYSMQWVRQAPGKGLEWVSVISPSGGSTMYADSVKGRFTISRDNSKNTLYLQMNSLRAEDTAVYYCARESYSSSWYSGYYYYYGMDVWGQGTTVTVSS
VL: DIQMTQSPASLSASVGDRVTITCRASQTIAGYLNWYQQTPGKAPNLLIYDASRLQSGVPSRFSGSGSGTDFTLSISGLQPEDFGTYYCQQSYTIPLTFGGGTKVEIK
notes: as for B2
Turning to B10, the binding result in test [4] is listed as “binds”.

B11: M73-C04 (Fab, V domains shown)
VH: EVQLLESGGGLVQPGGSLRLSCAASGFTFSPYAMVWVRQAPGKGLEWVSSISPSGGGTGYADSVKGRFTISRDNSKNTLYLQMNSLRAEDTAVYYCAREGWNYYYGMDVWGQGTTVTVSS
VL: DIQMTQSPATLSLSPGERATLSCRASQSVSSYLAWYQQKPGQAPRLLIYDASNRATGIPARFSGSGSGTDFTLAISSLQPEDSATYYCLQDFIYPYTFGQGTKLEIR
notes: as for B2
As to B11, the binding result in test [4] is listed as “binds”.

B12: M63-E10 (Fab, V domains shown)
VH: EVQLLESGGGLVQPGGSLRLSCAASGFTFSQYKMSWVRQAPGKGLEWVSSISSSGGTNYADSVKGRFTISRDNSKNTLYLQMNSLRAEDTAMYYCARRNYGDRPYWYFDLWGRGTLVTVSS
VL: DIQMTQSPSTLSASVGDRVTITCRASQTISRWLAWYQHKPGKAPKLLIYKTSNLESGVPSRFSGSGSGTEFTLTISSLQPDDFATYYCQQYKSYSITFGPGTKVDIK
notes: as for B2
Turning to B12, the binding result in test [4] is on record as “binds”.
